Paper PMC4729467, “Kinetic Characterization of 100 Glycoside Hydrolase Mutants Enables the Discovery of Structural Features Correlated with Kinetic Constants” (PLoS ONE, 2016)
Changes are numbered by the printed parent chain. In names and notes the source's numbering stands.

B1: β-glucosidase B (BglB) (Paenibacillus polymyxa) (protein)
chain: MSENTFIFPATFMWGTSTSSYQIEGGTDEGGRTPSIWDTFCQIPGKVIGGDCGDVACDHFHHFKEDVQLMKQLGFLHYRFSVAWPRIMPAAGIINEEGLLFYEHLLDEIELAGLIPMLTLYHWDLPQWIEDEGGWTQRETIQHFKTYASVIMDRFGERINWWNTINEPYCASILGYGTGEHAPGHENWREAFTAAHHILMCHGIASNLHKEKGLTGKIGITLNMEHVDAASERPEDVAAAIRRDGFINRWFAEPLFNGKYPEDMVEWYGTYLNGLDFVQPGDMELIQQPGDFLGINYYTRSIIRSTNDASLLQVEQVHMEEPVTDMGWEIHPESFYKLLTRIEKDFSKGLPILITENGAAMRDELVNGQIEDTGRHGYIEEHLKACHRFIEEGGQLKGYFVWSFLDNFEWAWGYSKRFGIVHINYETQERTPKQSALWFKQMMAKNGF
B2: β-glucosidase B (BglB) (Paenibacillus polymyxa; R243A) (protein)
chain: B1 chain with R243A
B3: β-glucosidase B (BglB) (Paenibacillus polymyxa; E225A) (protein)
chain: B1 chain with E225A

Substrate: O=[N+]([O-])c1ccc(O[C@@H]2O[C@H](CO)[C@@H](O)[C@H](O)[C@H]2O)cc1
Experiment: purified protein
[1] = enzyme storage buffer (HEPES elution buffer), ten biological replicates

Row | Protein | Km [1] [mM] | kcat [1] [s⁻¹] | Km (enzyme storage buffer) [mM] | kcat (enzyme storage buffer) [s⁻¹] | kcat/Km (enzyme storage buffer) [M⁻¹ s⁻¹]
1 | B1 | 5.0 ± 0.2 | 14.7 ± 0.167 | – | – | –
2 | B2 | – | – | 19.46 ± 1.17 | 184 | 9430 ± 606
3 | B3 | – | – | 0.63 ± 0.15 | 1.5 | 2390 ± 602
